“Also recorded” adds a separate entry of the source. Where two headings read alike, the source gives them in different places.
Key:
CCL8_HUMAN = biological target: T1, CCL8_HUMAN (Homo sapiens, UniProt P80075); assay: Biolayer interferometry (BLI) binding; settings: 300 nM or 600 nM CCL8
T1 sequence (P80075 24-99): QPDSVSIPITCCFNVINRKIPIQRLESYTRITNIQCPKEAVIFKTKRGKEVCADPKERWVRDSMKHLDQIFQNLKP
Summary of the method: (§1)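 Kd (M) came from curve fits to association, equilibrium and dissociation phases. Purified His-tagged tick evasin was immobilised on Ni-NTA biosensors; chemokines binding in a 300 nM cross-screen were then tested at a range of concentrations.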

chemokines = settings: list of chemokines bound, from the literature [18,20-22], cited from earlier work
CCL3_HUMAN = biological target: T2, CCL3_HUMAN (Homo sapiens, UniProt P10147); settings: read-out: Kd, CCL3_HUMAN, previously described evasins; data obtained from publications [20-22,32]; cited from earlier work
T2 sequence (P10147 24-92): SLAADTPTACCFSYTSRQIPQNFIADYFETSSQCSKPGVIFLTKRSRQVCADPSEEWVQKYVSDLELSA

CCL3L1_HUMAN = CCL3L1_HUMAN (Homo sapiens, UniProt P16619); settings: read-out: Kd, CCL3L1_HUMAN, previously described evasins; data obtained from publications [20-22,32]; cited from earlier work
CCL4_HUMAN [1] = biological target: T3, CCL4_HUMAN (Homo sapiens, UniProt P13236); settings: read-out: Kd, CCL4_HUMAN, previously described evasins; data obtained from publications [20-22,32]; cited from earlier work
T3 sequence (P13236 24-92): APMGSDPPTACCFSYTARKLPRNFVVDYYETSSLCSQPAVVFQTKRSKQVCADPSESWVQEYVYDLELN

CCL18_HUMAN = biological target: T4, CCL18_HUMAN (Homo sapiens, UniProt P55774); settings: read-out: Kd, CCL18_HUMAN, previously described evasins; data obtained from publications [20-22,32]; cited from earlier work
T4 sequence (P55774 21-89): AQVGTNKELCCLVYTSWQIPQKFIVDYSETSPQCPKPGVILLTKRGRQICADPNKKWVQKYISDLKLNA

CCL15_HUMAN = biological target: T5, CCL15_HUMAN (Homo sapiens, UniProt Q16663); assay: Yeast surface display (YSD) FACS binding
T5 sequence (Q16663 22-113): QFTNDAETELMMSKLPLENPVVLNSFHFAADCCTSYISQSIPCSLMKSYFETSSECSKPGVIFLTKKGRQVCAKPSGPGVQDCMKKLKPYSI
Summary of the method: (§2)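 Yeast clones displaying tick peptides were re-tested by FACS with labelled chemokine. Binding = % of peptide-expressing yeast above a background threshold set with streptavidin-Alexa647 alone; the mean percent shift was used where several clones were isolated. Confirmed binding ("YES") required >3-fold over background mean fluorescence intensity.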

CCL19_HUMAN = biological target: T6, CCL19_HUMAN (Homo sapiens, UniProt Q99731); assay: Yeast surface display (YSD) FACS binding
T6 sequence (Q99731 22-98): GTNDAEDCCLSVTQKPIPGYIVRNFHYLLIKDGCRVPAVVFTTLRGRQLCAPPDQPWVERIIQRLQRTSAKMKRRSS
Summary of the method: as §2

CCL25_HUMAN = biological target: T7, CCL25_HUMAN (Homo sapiens, UniProt O15444); assay: Yeast surface display (YSD) FACS binding
T7 sequence (O15444 24-150): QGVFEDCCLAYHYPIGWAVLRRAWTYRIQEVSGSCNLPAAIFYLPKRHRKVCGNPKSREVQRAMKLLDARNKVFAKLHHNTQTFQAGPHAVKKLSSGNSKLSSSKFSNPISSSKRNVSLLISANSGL
Summary of the method: as §2

CCL5_HUMAN = biological target: T8, CCL5_HUMAN (Homo sapiens, UniProt P13501); assay: Yeast surface display (YSD) FACS binding
T8 sequence (P13501 24-91): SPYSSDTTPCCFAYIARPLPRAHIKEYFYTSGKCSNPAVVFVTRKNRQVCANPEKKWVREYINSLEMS
Summary of the method: as §2

CXCL3_HUMAN = biological target: T9, CXCL3_HUMAN (Homo sapiens, UniProt P19876); assay: Biolayer interferometry (BLI) binding
T9 sequence (P19876 35-107): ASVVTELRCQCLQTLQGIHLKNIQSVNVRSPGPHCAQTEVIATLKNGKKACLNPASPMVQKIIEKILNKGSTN
Summary of the method: as §1

CXCL1_HUMAN [2] = biological target: T10, CXCL1_HUMAN (Homo sapiens, UniProt P09341); assay: Biolayer interferometry (BLI) binding; set-up: label (chemical)
T10 sequence (P09341 35-107): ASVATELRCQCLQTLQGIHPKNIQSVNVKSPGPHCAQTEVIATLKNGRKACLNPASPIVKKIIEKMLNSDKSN
Protocol: (§3) Table 1. Tick CKBPs described in PCT/GB2017/050563 and [17]. Tick peptide sequences isolated in yeast surface display fluorescent-activated cell sorting (FACS) screens using a labelled chemokine. Identity with Evasin-1, 4 or 3 was calculated using BLAST. Abbreviations: IXORI—Ixodes ricinus, RHISA—Rhipicephalus sanguineus, AMBMA—Amblyomma maculatum, AMBPA—Amblyomma parvum, AMBTR—Amblyomma triste, AMBAM—Amblyomma americanum, AMBCA—Amblyomma cajennense, RHIPU—Rhipicephalus pulchellus. Table 2A-C. Binding characteristics of tick CKBPs previously disclosed (PCT/GB2017/050563 and [17]). All members of the human chemokine family[164] are listed in column 1. Binding to human chemokines was determined for 14 tick CKBPs using biolayer interferometry (BLI) with calculated Kd shown as Molar (Moles/Litre). […] Association, equilibrium and dissociation data were analysed using Octet software to create corresponding fitted curves, and used to calculate Kd. For yeast surface display, (YSD) background fluorescence was controlled for by using either an empty vector or by omitting the chemokine (i.e. using streptavidin-Alexa647 alone). An arbitrary threshold of >3 fold over background mean fluorescence intensity was chosen to describe confirmed re-tests. Where binding was detected data are indicated as “YES”. […] Data was analysed using GraphPad Prism to determine IC50, which is shown as Molar (Moles/Litre). […]

CXCL8_HUMAN [3] = biological target: T11, CXCL8_HUMAN (Homo sapiens, UniProt P10145); assay: Biolayer interferometry (BLI) binding; set-up: label (chemical)
T11 sequence (P10145 21-99): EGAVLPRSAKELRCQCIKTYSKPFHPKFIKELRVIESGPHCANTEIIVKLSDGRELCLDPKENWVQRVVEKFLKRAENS
Protocol: as §3

CCL4_HUMAN [4] = biological target: T3, CCL4_HUMAN; assay: Yeast surface display (YSD) FACS binding
Summary of the method: as §2

CXCL1_HUMAN [5] = biological target: T10, CXCL1_HUMAN; settings: read-out: Kd, CXCL1_HUMAN, previously described evasins; data obtained from publications [20-22,32]; cited from earlier work
CXCL8_HUMAN [6] = biological target: T11, CXCL8_HUMAN; settings: read-out: Kd, CXCL8_HUMAN, previously described evasins; data obtained from publications [20-22,32]; cited from earlier work

CCL3L1_HUMAN, sequence (P16619 24-93): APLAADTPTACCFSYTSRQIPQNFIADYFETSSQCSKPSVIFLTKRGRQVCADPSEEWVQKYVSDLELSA

B1: EVASIN1: previously described tick CKBP evasin 1, from Rhipicephalus sanguineus (protein, listed as Rhipicephalus sanguineus)
chain: EDDEDYGDLGGCPFLVAENKTGYPTIVACKQDCNGTTETAPNGTRCFSIGDEGLRRMTANLPYDCPLGQCSNGDCIPKETYEVCYRRNWRDKKN
CCL8_HUMAN
  CCL8 binding (bound or not): did not
chemokines; listed as EVA1_RHISA
  Previously described chemokine binding: CCL3, CCL3L1, CCL4, CCL4L1, CCL14 and CCL18 but not CCL8; also recorded: CCL3, CCL3L1,; also recorded: CCL4, CCL18
CCL3_HUMAN
  Kd: 0.1 nM
CCL3L1_HUMAN
  Kd: 0.05 nM
CCL4_HUMAN [1]
  Kd: 0.5 nM
CCL18_HUMAN
  Kd: 3 nM

B2: P1006_AMBCA: tick CKBP, Amblyomma cajennense (protein)
chain: DTIGGIPGCGDPATTSAPEDQPKHYAVRTDKNGCKVMVIGTWMTKEDHNLLPPYISKERAPSGKVQLPASCKKNCHGKLKNLPNGTPCREVFGDLRRRRKHIKDGCKVGKCQNGLCVSEERIISCYLPPNITDPRPTHGPLAE
modifications: Amblyomma cajennense
CCL15_HUMAN
  Binding to CCL15_HUMAN, YSD: YES (An arbitrary threshold of >3 fold over background mean fluorescence intensity was chosen to describe confirmed re-tests. Where binding was detected data are indicated as “YES”)
CCL19_HUMAN
  Binding to CCL19_HUMAN, YSD: YES (An arbitrary threshold of >3 fold over background mean fluorescence intensity was chosen to describe confirmed re-tests. Where binding was detected data are indicated as “YES”)
CCL25_HUMAN
  Binding to CCL25_HUMAN, YSD: YES (An arbitrary threshold of >3 fold over background mean fluorescence intensity was chosen to describe confirmed re-tests. Where binding was detected data are indicated as “YES”)
CCL5_HUMAN
  Binding to CCL5_HUMAN, YSD: YES (An arbitrary threshold of >3 fold over background mean fluorescence intensity was chosen to describe confirmed re-tests. Where binding was detected data are indicated as “YES”)

B3: P1156_IXORI: tick CKBP, Ixodes ricinus (protein, listed as Ixodes ricinus)
chain: ADDDNELFTVQYCGMNCTKDEGGTWTGCTGKKEGCKCYHESGKNYGLCLSTEYTDFSQYGNPSDSEIEAAKPKRSDTLSH
CXCL3_HUMAN
  Kd: 81 nM
CXCL1_HUMAN [2]
  Kd: 3.25 nM
CXCL8_HUMAN [3]
  Kd: 4.6 nM

B4: P1014_AMBCA: tick CKBP, Amblyomma cajennense (protein)
chain: DIIGGIPGCGDPTTTSAPEVPPKHFAVRTDKDGCTLMIIGTWMTTEDHNRLPPDIGEKRAPYGRVQLPASCKKNCHGKVKNLPNGTPCREVFGDPRRGRKHIKNGCTVGKCQSGLCVTDKRIISCYIPPNITDPIPTHGPWAE
modifications: Amblyomma cajennense
CCL4_HUMAN [4]
  Binding to CCL4_HUMAN, YSD: YES (An arbitrary threshold of >3 fold over background mean fluorescence intensity was chosen to describe confirmed re-tests. Where binding was detected data are indicated as “YES”)

B5: EVASIN3: previously described tick CKBP evasin 3, from Rhipicephalus sanguineus (protein, listed as Rhipicephalus sanguineus)
chain: LVSTIESRTSGDGADNFDVVSCNKNCTSGQNECPEGCFCGLLGQNKKGHCYKIIGNLSGEPPVVRR
chemokines
  Previously described chemokine binding: CXCL1, CXCL8.
CXCL1_HUMAN [5]
  Kd: 0.85 nM
CXCL8_HUMAN [6]
  Kd: 0.43 nM

Reference: US20200247855A1, “THERAPY AND DIAGNOSTICS” (OXFORD UNIVERSITY INNOVATION LIMITED, priority 2017, published 2020)
